How the values were obtained:
[1] = target: Recombinant human CPP32 protein with a C-terminal 6His tag, (p17p12)2 tetramer (human) (UniProt P42574); test: cell-based or functional assay
[2] = target: CPP32 P12 subunit + Leu + Glu + 6 His (human) (UniProt P42574); test: analysis of the purified protein (SDS-PAGE, RP-HPLC, MALDI-TOF MS, N-terminal sequence and amino acid analysis)

Row | Molecule | enzyme inhibited (CPP32 protease activity) [1] [%] | molar ratio [2] [mol/mol]
1 | Ac-Asp-Val-Ala-Asp-fluoromethylketone (peptide) | 99.9 | –
2 | CPP32 P17 subunit (enzyme, human, UniProt P42574 29-175, looked up) SGISLDNSYKMDYPEMGLCIIINNKNFHKSTGMTSRSGTDVDAANLRETFRNLKYEVRNKNDLTREEIVELMRDVSKEDHSKRSSFVCVLLSHGEEGIIFGTNGPVDLKKITNFFRGDRCRSLTGKPKLFIIQACRGTELDCGIETD | – | 1
